Earlier results in patent US6528620B1, “Sid-polyamide fusions: a potent method of regulating gene expression” (University of Utah Research Foundation, priority 1999, dated 2003).

Experiments:
Details in all cases: Ayer et al., Cell 80:767-776 (1995); cited from earlier work
PAH1 domain of mSin3A = target: T1, PAH1 domain of mSin3A (Mus musculus, UniProt Q60520)
T1 sequence (Q60520 119-189 limits assumed): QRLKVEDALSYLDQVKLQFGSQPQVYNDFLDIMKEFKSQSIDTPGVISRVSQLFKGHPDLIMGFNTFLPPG

PAH3 domain of mSin3A = target: T2, PAH3 domain of mSin3A (Mus musculus, UniProt Q60520)
T2 sequence (Q60520 457-526 limits assumed): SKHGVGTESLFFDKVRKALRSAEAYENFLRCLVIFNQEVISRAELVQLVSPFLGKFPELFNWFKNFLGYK

PAH4 domain of mSin3A = test system: PAH4 domain of mSin3A
Chain of PAH4 domain of mSin3A (Q60520 889-968 limits assumed): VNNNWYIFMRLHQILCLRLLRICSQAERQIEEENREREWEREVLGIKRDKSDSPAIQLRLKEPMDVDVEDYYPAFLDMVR

B1: Mad1: bHLHZip transcriptional repressor protein of the Mad family (protein)
chain: MAAAVRMNIQMLLEAADYLERREREAEHGYASMLPYNNKDRDALKRRNKSKKNNSSSRSTHNEMEKNRRAHLRLCLEKLKGLVPLGPESSRHTTLSLLTKAKLHIKKLEDCDRKAVHQIDQLQREQRHLKRQLEKLGIERIRMDSIGSTVSSERSDSDREEIDVDVESTDYLTGDLDWSSSSVSDSDERGSMQSLGSDEGYSSTSIKRIKLQDSHKACLGL
modifications: left off: small tags and cut ends
notes: bHLHZip transcriptional repressor protein of the Mad family
no interaction is detected: interaction with PAH1 (PAH1 domain of mSin3A) | interaction with PAH3 (PAH3 domain of mSin3A) | interaction with PAH4 (PAH4 domain of mSin3A)
